The target in test [1] is cynomolgus 4-1BB extracellular domain, His tag (cynomolgus) (UniProt A9YYE7). Briefly: SPR, Biacore T200; antibody captured on Protein G chip, cynomolgus 4-1BB ECD.His as analyte. For orientation: In SPR one partner is held on a chip, and binding of the other changes the refractive index at the surface.
For test [2], the target named is human 4-1BB, full-length, on cells (human) (UniProt Q07011). Briefly: flow cytometry on human 4-1BB-expressing CHO-K1 cells, PE goat anti-human IgG Fc, MFI. For orientation: A flow cytometer gives signals particle by particle.
Sequence of human 4-1BB, full-length, on cells (human) (Q07011 24-255 limits assumed): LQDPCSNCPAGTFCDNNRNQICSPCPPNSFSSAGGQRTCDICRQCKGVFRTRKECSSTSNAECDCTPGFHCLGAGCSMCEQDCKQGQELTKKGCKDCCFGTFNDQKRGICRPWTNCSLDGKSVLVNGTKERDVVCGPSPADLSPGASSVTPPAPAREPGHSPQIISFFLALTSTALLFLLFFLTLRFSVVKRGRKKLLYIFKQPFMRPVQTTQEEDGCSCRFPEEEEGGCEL

Sequence of cynomolgus 4-1BB extracellular domain, His tag (cynomolgus) (A9YYE7 entry or part of it): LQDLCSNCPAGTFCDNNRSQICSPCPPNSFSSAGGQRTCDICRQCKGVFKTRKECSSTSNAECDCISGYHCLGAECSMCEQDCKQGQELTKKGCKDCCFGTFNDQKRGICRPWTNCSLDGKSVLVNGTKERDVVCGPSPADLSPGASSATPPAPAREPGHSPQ
Sequence of BMK4.hIgG2L(Pfizer) (antibody) (VH): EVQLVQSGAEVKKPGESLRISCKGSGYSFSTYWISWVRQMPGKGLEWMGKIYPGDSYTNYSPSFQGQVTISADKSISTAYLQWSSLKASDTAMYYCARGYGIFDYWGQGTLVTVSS
Sequence of BMK4.hIgG2L(Pfizer) (antibody) (VL): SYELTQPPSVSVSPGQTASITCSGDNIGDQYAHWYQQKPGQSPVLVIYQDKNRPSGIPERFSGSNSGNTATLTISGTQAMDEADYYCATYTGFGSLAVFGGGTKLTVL

As a reminder, the Kd is the free concentration of one partner at which half of the binding sites on the other are occupied at equilibrium, for simple one-to-one binding. Low values mean a tighter complex, high ones a looser complex. Consider BMK4.hIgG2L(Pfizer) (antibody), for which the Kd in test [1] turned out to be 16 nM.
A word on the EC50 (read off the curve): it is the concentration needed to bring the measured effect to its halfway point. A lower EC50 (read off the curve) goes with an effect from little substance. Substance WBP342-BMK3.hIgG4 (antibody) registered an EC50 (read off the curve) in test [2] of 0.2 nM.

The record behind these values is US20210230287A1.
